What was measured:
[1] = target: Zika virus envelope glycoprotein E, as displayed on recombinant F2A virus-like particles (Zika virus (strain BeH818995)); assay: non-reducing SDS-PAGE with Western blot; cell culture medium of transfected 293T cells, 72 and 96 h posttransfection at 37°C, 20 μg of total protein per sample; nonreducing conditions; E detected with monoclonal 4G2 antibody
[2] = target: Zika virus envelope glycoprotein E, as displayed on recombinant F2A virus-like particles (Zika virus (strain BeH818995)); assay: SDS-PAGE with Western blot; fractions of the two-step chromatographic purification of F2A VLPs (HiTrap Capto Q, then HiScreen Capto Core 700 flow-through); immunoblot of E

“Zika virus envelope glycoprotein E, as displayed on recombinant F2A virus-like particles (natural protein)” was tested, and the stoichiometry N [1] was 2 and the stoichiometry N [2] was 2.

Reference: article PMC9927573
